According to paper PMC3618350 (G3: Genes|Genomes|Genetics, 2013):
Like-named read-outs stand apart in the source and are kept apart here.

T1: Rev7 (S. cerevisiae, UniProt P38927 1-245)
T1 sequence (looked up): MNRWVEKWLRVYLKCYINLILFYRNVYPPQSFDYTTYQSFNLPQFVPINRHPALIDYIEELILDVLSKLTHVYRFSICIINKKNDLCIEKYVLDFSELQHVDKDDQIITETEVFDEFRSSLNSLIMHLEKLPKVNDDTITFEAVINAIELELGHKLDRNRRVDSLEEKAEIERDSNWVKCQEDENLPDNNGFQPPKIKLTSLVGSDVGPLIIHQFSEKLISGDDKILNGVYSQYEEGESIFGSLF

T2: Rev1 (S. cerevisiae, UniProt P12689 1-985)
T2 sequence (looked up): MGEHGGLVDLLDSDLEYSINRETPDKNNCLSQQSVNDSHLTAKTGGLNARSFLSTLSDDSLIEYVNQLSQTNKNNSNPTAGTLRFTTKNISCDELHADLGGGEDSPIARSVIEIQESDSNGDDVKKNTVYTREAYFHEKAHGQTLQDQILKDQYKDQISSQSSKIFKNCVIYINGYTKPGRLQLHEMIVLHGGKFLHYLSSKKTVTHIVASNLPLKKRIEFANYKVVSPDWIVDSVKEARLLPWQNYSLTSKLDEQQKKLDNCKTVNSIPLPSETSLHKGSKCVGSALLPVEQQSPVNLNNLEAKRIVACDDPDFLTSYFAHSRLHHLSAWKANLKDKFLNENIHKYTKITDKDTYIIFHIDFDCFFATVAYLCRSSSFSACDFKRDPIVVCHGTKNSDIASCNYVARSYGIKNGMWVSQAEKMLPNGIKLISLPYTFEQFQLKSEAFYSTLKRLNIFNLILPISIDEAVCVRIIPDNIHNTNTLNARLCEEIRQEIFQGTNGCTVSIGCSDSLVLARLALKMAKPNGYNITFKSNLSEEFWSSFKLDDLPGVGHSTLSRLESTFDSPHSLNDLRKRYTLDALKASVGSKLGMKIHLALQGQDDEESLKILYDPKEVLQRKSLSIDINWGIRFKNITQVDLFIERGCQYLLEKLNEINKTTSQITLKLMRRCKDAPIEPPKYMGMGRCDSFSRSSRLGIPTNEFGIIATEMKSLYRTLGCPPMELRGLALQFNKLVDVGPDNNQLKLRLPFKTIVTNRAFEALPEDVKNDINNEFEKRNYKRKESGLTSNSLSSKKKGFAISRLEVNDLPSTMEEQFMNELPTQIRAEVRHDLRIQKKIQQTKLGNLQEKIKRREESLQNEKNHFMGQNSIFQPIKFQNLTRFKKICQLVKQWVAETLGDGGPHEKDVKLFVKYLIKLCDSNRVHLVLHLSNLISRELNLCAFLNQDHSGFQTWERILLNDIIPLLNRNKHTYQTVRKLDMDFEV


Experiments:
Experiment in all cases: two-hybrid
Rev7 [1] = target: T1, Rev7
Rev1 = target: T2, Rev1
Rev7 [2] = target: T1, Rev7; remark: listed apart in the source

| fold change in reporter activity over the highest negative control (Rev7 [1]) [fold] | fold change in reporter activity over the highest negative control (Rev1) [fold] | Binder | also measured |
| --- | --- | --- | --- |
| 2 | – | Rad57 (natural protein, S. cerevisiae, UniProt P25301 1-460, looked up) MPRALSIKFDNTYMDLYDELPESKLLYDEEFSYLLDAVRQNGVCVVDFLTLTPKELARLIQRSINEVFRFQQLLVHEYNEKYLEICEKNSISPDNGPECFTTADVAMDELLGGGIFTHGITEIFGESSTGKSQLLMQLALSVQLSEPAGGLGGKCVYITTEGDLPTQRLESMLSSRPAYEKLGITQSNIFTVSCNDLINQEHIINVQLPILLERSKGSIKLVIIDSISHHLRVELQNKSFRESQENKNYLDRMAEKLQILAHDYSLSVVVANQVGDKPLANSPVAHRTYVTDYDYQLGWLVGWKNSTILYRQMNSLLGASSNNDEILSDDEDYMLIERVMSTVNDRNYDFFSKKKPPIIENKTVERNSSSPISRQSKKRKFDYRVPNLGLTWSNHVSTRILLQKSFKASTIIQRGEAHLYKGGDSASFWQVKRTMKVVYSTFAKPGQIAYQITKRGIETA | – |
| – | 4.15 | Spo11 (natural protein, S. cerevisiae, UniProt P23179 1-398, looked up) MALEGLRKKYKTRQELVKALTPKRRSIHLNSNGHSNGTPCSNADVLAHIKHFLSLAANSLEQHQQPISIVFQNKKKKGDTSSPDIHTTLDFPLNGPHLCTHQFKLKRCAILLNLLKVVMEKLPLGKNTTVRDIFYSNVELFQRQANVVQWLDVIRFNFKLSPRKSLNIIPAQKGLVYSPFPIDIYDNILTCENEPKMQKQTIFPGKPCLIPFFQDDAVIKLGTTSMCNIVIVEKEAVFTKLVNNYHKLSTNTMLITGKGFPDFLTRLFLKKLEQYCSKLISDCSIFTDADPYGISIALNYTHSNERNAYICTMANYKGIRITQVLAQNNEVHNKSIQLLSLNQRDYSLAKNLIASLTANSWDIATSPLKNVIIECQREIFFQKKAEMNEIDARIFEYK | – |
| – | – | Rec114 (natural protein, S. cerevisiae, UniProt P32841 1-428, looked up) MYEYCSVVIKKYSKYTIPSFAPNGFQSMLEPPQIDKWQHLSANCTLQFRVLLMDSRQILINVVLNNSTLLENIRLPLGDNQDLIQFSCKSPIISCKYISEEFGPRMLRRFQMNLPNDVEFNRTVVSLKNLNFVLRTARTSIAQSTITSQVQGNNNGTKVCFTEGPKVSSYTNPNTQFQTQNMIMDFSQRYQEESERESNNRSNITLPHDSIQIAQQIWPNTDLNVVQSSQDLNTPMATQTVLGRPESLIVQPLEVSQSPPNTTNCLPNAENKKKKVDTTSDFTSRKEIALCKTGLLETIHIPKERESQMQSVTGLDATPTIIWSPGKDNTAKKNTSNKKNIDDKLTNPQKSGNTHTPDRNKEVLPNGTLNETRKEASPSEGLTIRVKNVNRNASRKISKRLIKEKLKDEEFMKWVNKVETVLNKMFEK | fold change in reporter activity over the highest negative control (Rev7 [2]): 6.27 fold |
| – | 3.01 | Mei4 (natural protein, S. cerevisiae, UniProt P29467 1-408, looked up) MSRGKLEDMEQKETSEVDWIICFALIQSRNPTLWKRALSRKKGDVEDVGALKSEKNLKINPRENSKHIYKWVAPFENGFLNNKSLFAHLEPIYNFLCQNKYKSFEDAVGLKELQSFSKDVSTADINNWFLPRYKILLKILSLKTKEIDFRGLSQVFQTLQILLVSHYSHRIDSDSSFKRTLIDVHVFNFIAKFLFNRILLKKNQNDPKWLQNFYDQGDGKHLCDKVDYKRLCSLHFTLIYSIINIQLIKIKTNQTFEPQILKYVSVLKLIEHILIIIESLIHVLIRFVSKHKLICINRKKAYCRVYLERELSLKKTYLKNFYSVISGVPEKELGGLLKILKIVILSLLETFESIEWQHLKPFLEKFPAHEISLQKKRKYIQAALLITAERNLIARFRLSRWFNETENI | – |
| 1.49 | – | Rad54 (natural protein, S. cerevisiae, UniProt P32863 1-898, looked up) MARRRLPDRPPNGIGAGERPRLVPRPINVQDSVNRLTKPFRVPYKNTHIPPAAGRIATGSDNIVGGRSLRKRSATVCYSGLDINADEAEYNSQDISFSQLTKRRKDALSAQRLAKDPTRLSHIQYTLRRSFTVPIKGYVQRHSLPLTLGMKKKITPEPRPLHDPTDEFAIVLYDPSVDGEMIVHDTSMDNKEEESKKMIKSTQEKDNINKEKNSQEERPTQRIGRHPALMTNGVRNKPLRELLGDSENSAENKKKFASVPVVIDPKLAKILRPHQVEGVRFLYRCVTGLVMKDYLEAEAFNTSSEDPLKSDEKALTESQKTEQNNRGAYGCIMADEMGLGKTLQCIALMWTLLRQGPQGKRLIDKCIIVCPSSLVNNWANELIKWLGPNTLTPLAVDGKKSSMGGGNTTVSQAIHAWAQAQGRNIVKPVLIISYETLRRNVDQLKNCNVGLMLADEGHRLKNGDSLTFTALDSISCPRRVILSGTPIQNDLSEYFALLSFSNPGLLGSRAEFRKNFENPILRGRDADATDKEITKGEAQLQKLSTIVSKFIIRRTNDILAKYLPCKYEHVIFVNLKPLQNELYNKLIKSREVKKVVKGVGGSQPLRAIGILKKLCNHPNLLNFEDEFDDEDDLELPDDYNMPGSKARDVQTKYSAKFSILERFLHKIKTESDDKIVLISNYTQTLDLIEKMCRYKHYSAVRLDGTMSINKRQKLVDRFNDPEGQEFIFLLSSKAGGCGINLIGANRLILMDPDWNPAADQQALARVWRDGQKKDCFIYRFISTGTIEEKIFQRQSMKMSLSSCVVDAKEDVERLFSSDNLRQLFQKNENTICETHETYHCKRCNAQGKQLKRAPAMLYGDATTWNHLNHDALEKTNDHLLKNEHHYNDISFAFQYISH | – |
